Results published in the supplement of paper PMC12764529.
± gives the half width of the 95% confidence interval.

Columns and labels:
[1] = folding stability dG unfold (combined trypsin and chymotrypsin); higher = more stable
In short: (§1)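 Digests were run with trypsin and chymotrypsin at 11 concentrations in threefold dilutions, plus a no-protease condition, on designed mini-proteins in a PA-tagged cDNA display construct. The mini-proteins were under 80 residues, had no cysteine, and were kept only when AlphaFold2 dimer inter-PAE was above 15. After sequencing, Bayesian fitting of the counts gave K50, from which unfolding free energy was derived against a sequence-predicted unfolded-state K50 and a shared folded-state K50, per protease or combined.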

[2] = folding stability dG unfold from trypsin proteolysis; higher = more stable
In short: as §1

[3] = folding stability dG unfold from chymotrypsin proteolysis; higher = more stable
In short: as §1

Row | Sequence | folding stability dG unfold [1] [kcal/mol] | folding stability dG unfold [2] [kcal/mol] | folding stability dG unfold [3] [kcal/mol]
1 | SAGGSAGGSAGGDPNWVTVTIMIKVPPGDKPIEIEIPNGIKVEYYPFPDDGYLIFKITVRSAGGSAGGSAGG [r7_796_TrROS] | 3.02 ± 0.23 | 2.78 ± 0.16 | 3.11 ± 0.16
2 | SAGGSAGGSAGPVRTIEILFPFDPGESLEFEIRIPGNGRKIKVSIEPYPNGWMRIKITVYSAGGSAGGSAGG [r17_131_TrROS] | 5.69 ± 0.21 | 4.75 ± 0.21 | 5.68 ± 0.26
3 | SAGGGMTVVRITHPDGTPLTIEYDPNNPVATVHFADGTTETIPMPPDKTIEDLIAKLPEDAEVEVHDRSAGG [r13_696_JUSTAS] | 0.847 ± 0.14 | 0.321 ± 0.078 | 1.19 ± 0.026
4 | SAGGPLRIHISIENPNGKTLTYQIPLPPGDPEEAVKEIADEMKERGGTITSIEIENGVITITVRIPPSAGGS [r16_662_TrROS] | 2.8 ± 0.075 | 2.32 ± 0.059 | 2.97 ± 0.046
5 | SAGGSAGGSPWRRIPISSPEQILDWLEEMLPPGFNLTPEMAEQMVDYFLKNFEVDPNGYLWVRSAGGSAGGS [r12_983_TrROS] | 1.89 ± 0.14 | 2.11 ± 0.051 | 1.82 ± 0.21
6 | SKKIVINLENIPEENREKVLENVLKAIKEAKEKNPEKKVKITILVSPEQKEEVKKLKEELEKAGLEVEEISA [r9_1202_TrROS_Hall] | 2.73 ± 0.36 | 3.81 ± 0.31 | 2.31 ± 0.089
7 | SAGGSAGGSAGGETVTIVDKKTNKTITYNKETNEFTITTKNGKKKTIKVDSPEEALKALSAGGSAGGSAGGS [r10_849_TrROS_Hall] | 0.89 ± 0.12 | 0.964 ± 0.02 | 0.731 ± 0.1
8 | SAGGSASTPDGKTKTYTNTNPGATEEEVKPIAEEIAKEIAEKLGLDLSEIGISVSYDPNTGTISPLIGSAGG [r13_913_JUSTAS] | -0.105 ± 0.59 | -0.00514 ± 0.061 | -0.321 ± 0.49
9 | SAGGSASIPEKIAEELKEKYGVTEIKILSVDPNGIIKVELKSIEKNEGKLIEKTYKVTVKVPKNLLSAGGSA [r15_646_JUSTAS] | 2.14 ± 0.078 | 1.86 ± 0.071 | 2.23 ± 0.034
10 | SLKPGEPRTVEMTMIIPITPDEIAKLFGLDIPPGTYIMVEMRMRVPPNADIEMDPDIHLYDPDDNKWFPISA [r9_349_TrROS] | 2.86 ± 0.22 | 2.18 ± 0.089 | 3.29 ± 0.086
11 | SAGGSAGGKVRINWNPNGWIRIKIETPGKKQEIPIPMDSPEDAKDFVDKLAKQFKVKIEEIEPYSAGGSAGG [r6_254_TrROS] | 0.194 ± 0.26 | -0.179 ± 0.47 | 0.166 ± 0.3
12 | SAGGSAGGSAGNIMILNKDGKIIAEIKIEEKYEIDKDGKIKKTKKIEIKIVPVPPGEKIKSAGGSAGGSAGG [r17_480_TrROS_Hall] | 1.25 ± 0.29 | 0.867 ± 0.056 | 1.94 ± 0.11
13 | SAGGVTIEVDPGTGKVTITFPDGSSATIEVPPDERAVLFVKEGEGEVEVALVREDDPEALEKALELGSAGGS [r16_623_TrMRF] | 1.05 ± 0.2 | 0.811 ± 0.059 | 1.34 ± 0.058
14 | SAGGSAGPTTTPTTYARITATLRKGGETITVELEVPTSVVEEAVEALAKELGVEIEKVEVTLTEERSAGGSA [r15_535_JUSTAS] | 2.3 ± 0.08 | 2.08 ± 0.027 | 2.4 ± 0.042
15 | SKKKVKTETVTLKIVNEKTGEEVELTLEFYEDGTVVKVTFPDGTTKEIKVGKTLEELLSLPPNAKIELIPSA [r9_781_TrROS_Hall] | 1.56 ± 0.11 | 0.315 ± 0.12 | 2 ± 0.11
16 | SAGGMLVRVRFRIVEPGTGEPFEFEALLFFGEDGSFELVFPDGTRLLFPPEARIEVLDAELLDPDEASAGGS [r16_223_TrMRF] | 4.61 ± 0.2 | 3.96 ± 0.19 | 4.9 ± 0.11

Row | Sequence | folding stability dG unfold [1] [kcal/mol] | folding stability dG unfold [2] [kcal/mol] | folding stability dG unfold [3] [kcal/mol]
17 | SAGGSAGGSAGGMTVRITTPDGRVIEIPAKDLSPEQLAALKEAGFEVVSVEPGRVTIRLKSAGGSAGGSAGG [r7_496_TrROS_Hall] | 1.49 ± 0.13 | 0.865 ± 0.1 | 1.92 ± 0.036
18 | SAGGSAGGTAEELARKLEEALREAGYEVEKIEVVRVERKGDKVTIEVRVTLPDGRKLELRIELDSAGGSAGG [r6_839_TrROS_Hall] | 3.67 ± 0.21 | 4.09 ± 0.3 | 3.22 ± 0.13
19 | SAGGGPDLPGEVEVEVEITRVEFDPETGELRVEAEATFPDGLVAKVKITFPEPGDLDKFEVEVEVEPASAGG [r13_894_TrMRF] | 1.59 ± 0.035 | 1.5 ± 0.052 | 1.68 ± 0.071
20 | SAGGSAGGKTLTIKLKDSTVTIELPSSISSISRIEVHSDGSLTLYHSSTGSTITLPIPPKIDNPSAGGSAGG [r6_369_TrMRF] | 1.96 ± 0.051 | 1.74 ± 0.058 | 2.06 ± 0.035
21 | SAGGSAGGSAGYLYFISIEFNLQWNGDGNLQLQPKIEIQRIEIPPPPPKWKYDGNKPKYDSAGGSAGGSAGG [r17_418_TrROS] | 3.04 ± 0.17 | 2.44 ± 0.12 | 3.44 ± 0.048
22 | SAMKLEAPVVLDGKPVEVEFDAEPFEAPDGDVYYLVPLKVTFPDGRTYTARLRLKPGGKIVSVELLSDESAG [r14_341_TrMRF] | 1.77 ± 0.061 | 1.93 ± 0.028 | 1.31 ± 0.19
23 | SAGGSAGGSAGGWIRSPGGWWVNIDIEIFEIPIDKNMSPEMANKFKRVRIIVIEITVVKRSAGGSAGGSAGG [r7_324_TrROS] | 3.84 ± 0.25 | 3.31 ± 0.16 | 4.7 ± 0.15
24 | SALTLEIELEFELEDGYRVTVRARLEFDPETNELTIEVEVRIEPLPPPPPPPETVLVKDENGNWHPLEDLSA [r9_898_TrROS_Hall] | 3.27 ± 0.15 | 3.22 ± 0.14 | 3.44 ± 0.16
25 | SAGGDWRTITFNFEVDVPPGQTPEQLIEKAEEIVEELARMFPDVKIEVTDIEVDEDKVYIDVEIRVPDSAGG [r13_805_TrROS] | 3.22 ± 0.16 | 2.6 ± 0.17 | 3.45 ± 0.097
26 | SADNYFIRIKHKLNGKPRERTYPIDSPEEALDAIKDELQPHFPGAPIDKVKIDVFNPNNGEWQEITLKISAG [r14_54_TrROS] | 0.256 ± 0.13 | -0.0876 ± 0.11 | 0.373 ± 0.13
27 | SAGGSAGGSAKELLKNIEKVEIIKNKKTNKYTIRIKNKNGKVYEFEFKSLEEALKKAGIKPSAGGSAGGSAG [r3_36_TrROS_Hall] | 2.93 ± 0.073 | 2.24 ± 0.041 | 3.19 ± 0.038
28 | SAGGVLETKLPGGVSVTYSETPFVKDGREYLVLPAAAGDPAGAPFVTTTVVEPETGEVLETTETPLASAGGS [r8_492_JUSTAS] | 0.465 ± 0.1 | 0.331 ± 0.059 | 0.536 ± 0.13
29 | SAGGSAGGSMKTEVTVDEEGKYTVTVTPPDGSTVNLVVPPGDPAAAVAAAKAAGLEVEDIKAASAGGSAGGS [r12_891_JUSTAS] | -0.21 ± 0.27 | 0.0357 ± 0.061 | -0.241 ± 0.15
30 | SAGGSKIKELLDAIKKAIEEGKEEVTIEVTLPNGSKIKFYPDGTIEITNKNGEKKTIKIKADDIKPSAGGSA [r2_97_TrROS_Hall] | 1.99 ± 0.27 | 2.29 ± 0.23 | 1.44 ± 0.1
31 | SAGGSPNIQVNVERDPKDGYIKFSITVPPGAPNMKIKIAIFENDKIVEKEEITMPPGKTTEYTFKIKSAGGS [r16_412_TrROS] | 3.6 ± 0.38 | 3.29 ± 0.16 | 4.13 ± 0.065
